Measurements published in paper PMC5618010 (Viruses, 2017).
No end group written: not given here.

Assays:
Format in all cases: cell-based
HIV-1JR-FL [1] = system: HIV-1JR-FL
HIV-1JR-FL [2] = system: HIV-1JR-FL; remark: listed apart in the source
HIV-1JR-FL [3] = system: HIV-1JR-FL; remark: listed apart in the source

Molecule	Late RT production compared to WT HD6 (HIV-1JR-FL [1])	Attachment 10 μg/mL: relative percent of HIV attachment compared to WT HD6 (HIV-1JR-FL [2])	Attachment 30 μg/mL: relative percent of HIV attachment compared to WT HD6 (HIV-1JR-FL [2])	Infectivity 10 μg/mL: relative percent of HIV infectivity compared to WT HD6 (HIV-1JR-FL [3])	Infectivity 30 μg/mL: relative percent of HIV infectivity compared to WT HD6 (HIV-1JR-FL [3])	Attachment 10 μg/mL: relative percent of HIV attachment compared to WT HD5 (HIV-1JR-FL [2])	Attachment 30 μg/mL: relative percent of HIV attachment compared to WT HD5 (HIV-1JR-FL [2])	Reduction of ability to promote HIV attachment compared to WT HD5 (HIV-1JR-FL [2])	Infectivity 10 μg/mL: relative percent of HIV infectivity compared to WT HD5 (HIV-1JR-FL [3])	Infectivity 30μg/mL: relative percent of HIV infectivity compared to WT HD5 (HIV-1JR-FL [3])	Loss of HIV attachment-enhancing and infection-enhancing activities (HIV-1JR-FL [3])
Ac-HD6: HD6 acetylated at the N-terminus (Ac-AFTCHCRRSCYSTEYSYGTCTVMGINHRFCCL; ends and bridges not checked; UniProt Q01524 69-100, looked up)	comparable	57 ± 14%	87 ± 19%	58 ± 24%	175 ± 43%	–	–	–	–	–	–
R28A-HD5: HD5 mutant R28A, chemically synthesized; cationicity (peptide, UniProt Q01523 20-94, looked up, variant R28A, Defensin-5) Defensin alpha 5: ESLQERADEATTQKQSGEDNQDLAISFAGNGLSALRTSGSQARATCYCRTGRCATRESLSGVCEISGRLYALCCR	–	–	–	–	–	54 ± 17%	59 ± 19%	41%	66 ± 5%	52 ± 3%	about 50%
S15A-HD5: HD5 mutant S15A, chemically synthesized (peptide, UniProt Q01523 20-94, looked up, variant S15A, Defensin-5) Defensin alpha 5: ESLQERADEATTQKQSGEDNQDLAISFAGNGLSALRTSGSQARATCYCRTGRCATREALSGVCEISGRLYRLCCR	–	–	–	–	–	118± 9%	95 ± 16%	–	166 ± 30%	81 ± 11%	–
L16A-HD5: HD5 mutant L16A, chemically synthesized; hydrophobicity (peptide, UniProt Q01523 20-94, looked up, variant L16A, Defensin-5) Defensin alpha 5: ESLQERADEATTQKQSGEDNQDLAISFAGNGLSALRTSGSQARATCYCRTGRCATRESASGVCEISGRLYRLCCR	–	–	–	–	–	17 ± 5%	27 ± 7%	–	10 ± 3%	30 ± 3%	–
Y27A-HD5: HD5 mutant Y27A, chemically synthesized; hydrophobicity (peptide, UniProt Q01523 20-94, looked up, variant Y27A, Defensin-5) Defensin alpha 5: ESLQERADEATTQKQSGEDNQDLAISFAGNGLSALRTSGSQARATCYCRTGRCATRESLSGVCEISGRLARLCCR	–	–	–	–	–	19 ± 11%	18 ± 9%	–	28 ± 18%	29 ± 9%	–
Y4A-HD5: HD5 mutant Y4A, chemically synthesized; hydrophobicity (peptide, UniProt Q01523 20-94, looked up, variant Y4A, Defensin-5) Defensin alpha 5: ESLQERADEATTQKQSGEDNQDLAISFAGNGLSALRTSGSQARATCACRTGRCATRESLSGVCEISGRLYRLCCR	–	–	–	–	–	134 ± 26%	106 ± 3%	–	136 ± 42%	75 ± 14%	–
human α-defensin 5 (peptide, UniProt Q01523 20-94, looked up, Defensin-5) Defensin alpha 5: ESLQERADEATTQKQSGEDNQDLAISFAGNGLSALRTSGSQARATCYCRTGRCATRESLSGVCEISGRLYRLCCR	–	–	–	–	–	100 ± 0%	100 ± 0%	–	100 ± 0%	100 ± 0%	–
